# Test results as given in the MegaScale stability set (Tsuboyama et al. 2023).
# B1: EHEE_rd2_1257 (parent)
# chain: EEERTFTNEEEARKAKKEAEKRGLRVTVTKDGTTWRVRIG
# Variants of: B1
# Assay: folding stability dG (cDNA display proteolysis); higher = more stable
# Settings: PBS, room temperature
row,Variant,folding stability dG [kcal/mol]
1,EEERTFTNEEEARKAKKEAEKRGLRVTMTKDGTTWRVRIG [V28M],2.37
2,EEERTFTNEEEARKAKKEAEKRGLRVTITKDGTTWRVRIG [V28I],2.71
3,EEERTFTNEEEARKAKKEAEKRGLRVTWTKDGTTWRVRIG [V28W],0.937
4,EEERTFTNEEEARKAKKEAEKRGLRVTFTKDGTTWRVRIG [V28F],1.45
5,EEERTFTNEEEARKAKKEAEKRGLRVTATKDGTTWRVRIG [V28A],-0.179
6,EEERTFTNEEEARKAKKEAEKRGLRVTQTKDGTTWRVRIG [V28Q],-0.917
7,EEERTFTNEEEARKAKKEAEKRGLRVTTTKDGTTWRVRIG [V28T],0.613
8,EEERTFTNEEEARKAKKEAEKRGLRVTLTKDGTTWRVRIG [V28L],2.58
9,EEERTFTNEEEARKAKKEAEKRGLRVTCTKDGTTWRVRIG [V28C],1.96
10,EEERTFTNEEEARKAKKEAEKIGLRVTVTKDGTTWRVRIG [R22I],1.59
11,EEERTFTNEEEARKAKKEAEKYGLRVTVTKDGTTWRVRIG [R22Y],1.69
12,EEERTFTNEEEARKAKKEAEKPGLRVTVTKDGTTWRVRIG [R22P],-0.245
13,EEERTFTNEEEARKAKKEAEKQGLRVTVTKDGTTWRVRIG [R22Q],1.88
14,EEERTFTNEEEARKAKKEAEKWGLRVTVTKDGTTWRVRIG [R22W],1.72
15,EEERTFTNEEEARKAKKEAEKTGLRVTVTKDGTTWRVRIG [R22T],1.06
16,EEERTFTNEEEARKAKKEAEKAGLRVTVTKDGTTWRVRIG [R22A],1.91
17,EEERTFTNEEEARKAKKEAEKDGLRVTVTKDGTTWRVRIG [R22D],1.09
18,EEERTFTNEEEARKAKKEAEKVGLRVTVTKDGTTWRVRIG [R22V],1.45
19,EEERTFTNEEEARKAKKEAEKSGLRVTVTKDGTTWRVRIG [R22S],1.44
20,EEERTFTNEEEARKAKKEAEKEGLRVTVTKDGTTWRVRIG [R22E],1.23
21,EEERTFTNEEEARKAKKEAEKMGLRVTVTKDGTTWRVRIG [R22M],2.18
22,EEERTFTNEEEARKAKKEAEKLGLRVTVTKDGTTWRVRIG [R22L],2.19
23,EEERTFTNEEEARKAKKEAEKCGLRVTVTKDGTTWRVRIG [R22C],1.55
24,EEERTFTNEEEARKAKKEAEKGGLRVTVTKDGTTWRVRIG [R22G],1.02
25,EEERTFTNEEEARKAKKEAEKFGLRVTVTKDGTTWRVRIG [R22F],1.62

row,Variant,folding stability dG [kcal/mol]
1,EEERTFTNEEEARKAKKEAEKHGLRVTVTKDGTTWRVRIG [R22H],1.72
2,EEERTFTNEEEARKAKKEAEKNGLRVTVTKDGTTWRVRIG [R22N],1.72
3,EEERTFTNEEEARKAKKEAEKKGLRVTVTKDGTTWRVRIG [R22K],1.8
4,EEERTFTNEEEARKAKKEAEIRGLRVTVTKDGTTWRVRIG [K21I],1.93
5,EEERTFTNEEEARKAKKEAERRGLRVTVTKDGTTWRVRIG [K21R],2.19
6,EEERTFTNEEEARKAKKEAEWRGLRVTVTKDGTTWRVRIG [K21W],1.71
7,EEERTFTNEEEARKAKKEAEYRGLRVTVTKDGTTWRVRIG [K21Y],1.82
8,EEERTFTNEEEARKAKKEAEDRGLRVTVTKDGTTWRVRIG [K21D],2.25
9,EEERTFTNEEEARKAKKEAEMRGLRVTVTKDGTTWRVRIG [K21M],2.45
10,EEERTFTNEEEARKAKKEAEQRGLRVTVTKDGTTWRVRIG [K21Q],2.17
11,EEERTFTNEEEARKAKKEAEARGLRVTVTKDGTTWRVRIG [K21A],2.53
12,EEERTFTNEEEARKAKKEAELRGLRVTVTKDGTTWRVRIG [K21L],2.31
13,EEERTFTNEEEARKAKKEAEVRGLRVTVTKDGTTWRVRIG [K21V],1.82
14,EEERTFTNEEEARKAKKEAEERGLRVTVTKDGTTWRVRIG [K21E],2.25
15,EEERTFTNEEEARKAKKEAEHRGLRVTVTKDGTTWRVRIG [K21H],1.82
16,EEERTFTNEEEARKAKKEAEGRGLRVTVTKDGTTWRVRIG [K21G],2.11
17,EEERTFTNEEEARKAKKEAETRGLRVTVTKDGTTWRVRIG [K21T],1.88
18,EEERTFTNEEEARKAKKEAEFRGLRVTVTKDGTTWRVRIG [K21F],1.89
19,EEERTFTNEEEARKAKKEAESRGLRVTVTKDGTTWRVRIG [K21S],2.38
20,EEERTFTNEEEARKAKKEAENRGLRVTVTKDGTTWRVRIG [K21N],2.06
21,EEERTFTNEEEARKAKKEAEKRFLRVTVTKDGTTWRVRIG [G23F],0.9
22,EEERTFTNEEEARKAKKEAEKRDLRVTVTKDGTTWRVRIG [G23D],-0.065
23,EEERTFTNEEEARKAKKEAEKRALRVTVTKDGTTWRVRIG [G23A],0.188
24,EEERTFTNEEEARKAKKEAEKRYLRVTVTKDGTTWRVRIG [G23Y],0.68
25,EEERTFTNEEEARKAKKEAEKRWLRVTVTKDGTTWRVRIG [G23W],0.38

row,Variant,folding stability dG [kcal/mol]
1,EEERTFTNEEEARKAKKEAEKRNLRVTVTKDGTTWRVRIG [G23N],0.986
2,EEERTFTNEEEARKAKKEAEKRLLRVTVTKDGTTWRVRIG [G23L],0.537
3,EEERTFTNEEEARKAKKEAEKRCLRVTVTKDGTTWRVRIG [G23C],1.58
4,EEERTFTNEEEARKAKKEAEKRKLRVTVTKDGTTWRVRIG [G23K],0.384
5,EEERTFTNEEEARKAKKEAEKRQLRVTVTKDGTTWRVRIG [G23Q],0.383
6,EEERTFTNEEEARKAKKEAEKRHLRVTVTKDGTTWRVRIG [G23H],0.993
7,EEERTFTNEEEARKAKKEAEKRVLRVTVTKDGTTWRVRIG [G23V],0.034
8,EEERTFTNEEEARKAKKEAEKRELRVTVTKDGTTWRVRIG [G23E],-0.609
9,EEERTFTNEEEARKAKKEAEKRMLRVTVTKDGTTWRVRIG [G23M],0.537
10,EEERTFTNEEEARKAKKEAEKRRLRVTVTKDGTTWRVRIG [G23R],0.397
11,EEERTFTNEEEARKAKKEAEKRSLRVTVTKDGTTWRVRIG [G23S],0.399
12,EEERTFTNEEEARKAKKEAYKRGLRVTVTKDGTTWRVRIG [E20Y],1.03
13,EEERTFTNEEEARKAKKEAEKRGERVTVTKDGTTWRVRIG [L24E],0.879
14,EEERTFTNEEEARKAKKEAEKRGARVTVTKDGTTWRVRIG [L24A],0.982
15,EEERTFTNEEEARKAKKEAEKRGWRVTVTKDGTTWRVRIG [L24W],1.61
16,EEERTFTNEEEARKAKKEAEKRGSRVTVTKDGTTWRVRIG [L24S],0.594
17,EEERTFTNEEEARKAKKEAEKRGYRVTVTKDGTTWRVRIG [L24Y],2.08
18,EEERTFTNEEEARKAKKEAEKRGNRVTVTKDGTTWRVRIG [L24N],0.631
19,EEERTFTNEEEARKAKKEAEKRGKRVTVTKDGTTWRVRIG [L24K],1.18
20,EEERTFTNEEEARKAKKEAEKRGHRVTVTKDGTTWRVRIG [L24H],1.46
21,EEERTFTNEEEARKAKKEAEKRGRRVTVTKDGTTWRVRIG [L24R],1.19
22,EEERTFTNEEEARKAKKEAEKRGFRVTVTKDGTTWRVRIG [L24F],2.15
23,EEERTFTNEEEARKAKKEAEKRGMRVTVTKDGTTWRVRIG [L24M],1.79
24,EEERTFTNEEEARKAKKEAEKRGDRVTVTKDGTTWRVRIG [L24D],0.447
25,EEERTFTNEEEARKAKKEAEKRGIRVTVTKDGTTWRVRIG [L24I],1.16

row,Variant,folding stability dG [kcal/mol]
1,EEERTFTNEEEARKAKKEAEKRGQRVTVTKDGTTWRVRIG [L24Q],1.41
2,EEERTFTNEEEARKAKKEAEKRGVRVTVTKDGTTWRVRIG [L24V],1.21
3,EEERTFTNEEEARKAKKEAEKRGTRVTVTKDGTTWRVRIG [L24T],0.162
4,EEERTFTNEEEARKAKKEAEKRGGRVTVTKDGTTWRVRIG [L24G],0.057
5,EEERTFTNEEEARKAKKEAEKRGLVVTVTKDGTTWRVRIG [R25V],1.93
6,EEERTFTNEEEARKAKKEAEKRGLTVTVTKDGTTWRVRIG [R25T],1.9
7,EEERTFTNEEEARKAKKEAEKRGLWVTVTKDGTTWRVRIG [R25W],1.98
8,EEERTFTNEEEARKAKKEAEKRGLHVTVTKDGTTWRVRIG [R25H],2.15
9,EEERTFTNEEEARKAKKEAEKRGLFVTVTKDGTTWRVRIG [R25F],2.07
10,EEERTFTNEEEARKAKKEAEKRGLQVTVTKDGTTWRVRIG [R25Q],1.89
11,EEERTFTNEEEARKAKKEAEKRGLEVTVTKDGTTWRVRIG [R25E],1.5
12,EEERTFTNEEEARKAKKEAEKRGLPVTVTKDGTTWRVRIG [R25P],1.47
13,EEERTFTNEEEARKAKKEAEKRGLYVTVTKDGTTWRVRIG [R25Y],2.07
14,EEERTFTNEEEARKAKKEAEKRGLLVTVTKDGTTWRVRIG [R25L],1.87
15,EEERTFTNEEEARKAKKEAEKRGLGVTVTKDGTTWRVRIG [R25G],0.797
16,EEERTFTNEEEARKAKKEAEKRGLMVTVTKDGTTWRVRIG [R25M],1.81
17,EEERTFTNEEEARKAKKEAEKRGLAVTVTKDGTTWRVRIG [R25A],1.62
18,EEERTFTNEEEARKAKKEAEKRGLNVTVTKDGTTWRVRIG [R25N],1.62
19,EEERTFTNEEEARKAKKEAEKRGLSVTVTKDGTTWRVRIG [R25S],1.88
20,EEERTFTNEEEARKAKKEAEKRGLIVTVTKDGTTWRVRIG [R25I],1.95
21,EEERTFTNEEEARKAKKEAEKRGLKVTVTKDGTTWRVRIG [R25K],2.06
22,EEERTFTNEEEARKAKKEAEKRGLDVTVTKDGTTWRVRIG [R25D],1.23
23,EEERTFTNEEEARKAKKEAEKRGLRITVTKDGTTWRVRIG [V26I],0.589
24,EEERTFTNEEEARKAKKEAEKRGLRSTVTKDGTTWRVRIG [V26S],0.809
25,EEERTFTNEEEARKAKKEAEKRGLRMTVTKDGTTWRVRIG [V26M],0.445

row,Variant,folding stability dG [kcal/mol]
1,EEERTFTNEEEARKAKKEAEKRGLRPTVTKDGTTWRVRIG [V26P],-0.777
2,EEERTFTNEEEARKAKKEAEKRGLRATVTKDGTTWRVRIG [V26A],2.13
3,EEERTFTNEEEARKAKKEAEKRGLRLTVTKDGTTWRVRIG [V26L],0.171
4,EEERTFTNEEEARKAKKEAEKRGLRTTVTKDGTTWRVRIG [V26T],0.897
5,EEERTFTNEEEARKAKKEAEKRGLRGTVTKDGTTWRVRIG [V26G],0.489
6,EEERTFTNEEEARKAKKEAEKRGLRFTVTKDGTTWRVRIG [V26F],0.359
7,EEERTFTNEEEARKAKKEAEKRGLRWTVTKDGTTWRVRIG [V26W],0.008
8,EEERTFTNEEEARKAKKEAEKRGLRYTVTKDGTTWRVRIG [V26Y],0.032
9,EEERTFTNEEEARKAKKEAEKRGLRVDVTKDGTTWRVRIG [T27D],1.05
10,EEERTFTNEEEARKAKKEAEKRGLRVFVTKDGTTWRVRIG [T27F],1.83
11,EEERTFTNEEEARKAKKEAEKRGLRVEVTKDGTTWRVRIG [T27E],1.64
12,EEERTFTNEEEARKAKKEAEKRGLRVKVTKDGTTWRVRIG [T27K],1.43
13,EEERTFTNEEEARKAKKEAEKRGLRVVVTKDGTTWRVRIG [T27V],1.88
14,EEERTFTNEEEARKAKKEAEKRGLRVQVTKDGTTWRVRIG [T27Q],1.49
15,EEERTFTNEEEARKAKKEAEKRGLRVWVTKDGTTWRVRIG [T27W],1.96
16,EEERTFTNEEEARKAKKEAEKRGLRVYVTKDGTTWRVRIG [T27Y],1.92
17,EEERTFTNEEEARKAKKEAEKRGLRVSVTKDGTTWRVRIG [T27S],1.77
18,EEERTFTNEEEARKAKKEAEKRGLRVIVTKDGTTWRVRIG [T27I],1.95
19,EEERTFTNEEEARKAKKEAEKRGLRVGVTKDGTTWRVRIG [T27G],0.262
20,EEERTFTNEEEARKAKKEAEKRGLRVLVTKDGTTWRVRIG [T27L],1.58
21,EEERTFTNEEEARKAKKEAEKRGLRVAVTKDGTTWRVRIG [T27A],1.19
22,EEERTFTNEEEARKAKKEAEKRGLRVRVTKDGTTWRVRIG [T27R],1.62
23,EEERTFTNEEEARKAKKEAEKRGLRVNVTKDGTTWRVRIG [T27N],1.15
24,EEERTFTNEEEARKAKKEAEKRGLRVHVTKDGTTWRVRIG [T27H],1.57
25,EEERTFTNEEEARKAKKEAEKRGLRVMVTKDGTTWRVRIG [T27M],1.53
